Data on 3 molecules can be found in publication PMC4258232 (Cell stem cell, 2014).

For test [1], the target named is T1, GST-SET7/9 (full length) (UniProt Q8WTS6 1-366).
T1 sequence (looked up): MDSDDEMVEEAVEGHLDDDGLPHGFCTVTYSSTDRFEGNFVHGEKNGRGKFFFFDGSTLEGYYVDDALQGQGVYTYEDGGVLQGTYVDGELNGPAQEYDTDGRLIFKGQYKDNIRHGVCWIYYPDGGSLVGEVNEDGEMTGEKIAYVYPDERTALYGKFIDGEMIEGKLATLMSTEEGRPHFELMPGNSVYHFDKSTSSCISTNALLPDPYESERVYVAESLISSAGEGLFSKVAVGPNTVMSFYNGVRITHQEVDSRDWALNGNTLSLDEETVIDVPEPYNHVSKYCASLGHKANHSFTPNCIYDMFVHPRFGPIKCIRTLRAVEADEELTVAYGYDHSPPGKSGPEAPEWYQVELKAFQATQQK
Description: pull-down.

The target in test [2] is T1, GST-SET7/9 (full length). Description: pull-down. The source holds these as a separate data set.

Changes are numbered by the printed parent chain. Names may count otherwise. Like-named read-outs stand apart in the source and are kept apart here.

B1: LIN28A carboxyl terminus (amino acids 125-209) (domain or fragment, UniProt Q9H9Z2 125-209, looked up)
chain: KGKSMQKRRSKGDRCYNCGGLDHHAKECKLPPQPKKCHFCQSISHMVASCPLKAQQGPSAQGKPTYFREEEEEIHSPTLLPEAQN
On to B1, for which the binding result with GST-SET7/9 (full length) [1] is recorded as “binds”.

B2: 6×HIS-LIN28A (full length) (natural protein, UniProt Q9H9Z2 1-209, looked up)
chain: MGSVSNQQFAGGCAKAAEEAPEEAPEDAARAADEPQLLHGAGICKWFNVRMGFGFLSMTARAGVALDPPVDVFVHQSKLHMEGFRSLKEGEAVEFTFKKSAKGLESIRVTGPGGVFCIGSERRPKGKSMQKRRSKGDRCYNCGGLDHHAKECKLPPQPKKCHFCQSISHMVASCPLKAQQGPSAQGKPTYFREEEEEIHSPTLLPEAQN
Take B2: the binding result with GST-SET7/9 (full length) [2] is on record as “binds”.

B3: 6×HIS-LIN28A-K135R (full length) (natural protein, UniProt Q9H9Z2 1-209, looked up)
chain: B2 chain with K135R
As to B3, the binding result in the test with GST-SET7/9 (full length) [2] was “binds”.
